Measured values as given in PMC4822050 (2016).

Assays:
[1] = biological target: T1, PHD of UHRF1 (residues 307–366) (human, UniProt Q96T88 307-366); assay: ITC; in presence of SRA (PHD/SRA 1:2)
T1 chain: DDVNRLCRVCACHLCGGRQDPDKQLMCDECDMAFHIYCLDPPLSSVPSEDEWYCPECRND

[2] = biological target: T1, PHD of UHRF1 (residues 307–366); assay: ITC; in presence of SRA (PHD/SRA 1:1)
PHD-SRA of UHRF1 = biological target: T2, PHD-SRA of UHRF1 (human); assay: ITC
T2 chain: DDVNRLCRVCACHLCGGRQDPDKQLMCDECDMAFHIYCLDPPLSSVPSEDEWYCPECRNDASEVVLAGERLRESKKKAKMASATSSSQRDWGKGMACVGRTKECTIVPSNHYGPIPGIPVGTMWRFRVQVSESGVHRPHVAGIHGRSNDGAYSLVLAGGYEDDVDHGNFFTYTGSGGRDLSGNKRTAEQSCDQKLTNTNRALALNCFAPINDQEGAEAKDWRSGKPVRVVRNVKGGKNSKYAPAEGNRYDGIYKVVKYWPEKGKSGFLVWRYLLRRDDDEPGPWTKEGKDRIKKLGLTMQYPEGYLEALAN

[3] = biological target: T1, PHD of UHRF1 (residues 307–366); assay: ITC; in presence of SRA (1:1)
[4] = biological target: T1, PHD of UHRF1 (residues 307–366); assay: ITC; in presence of SRA (1:2)
[5] = biological target: T1, PHD of UHRF1 (residues 307–366); assay: ITC
[6] = biological target: T3, TTD of UHRF1 (residues 134–285) (human, UniProt Q96T88 134-285); assay: ITC; in presence of Spacer R649A (1:2)
T3 chain: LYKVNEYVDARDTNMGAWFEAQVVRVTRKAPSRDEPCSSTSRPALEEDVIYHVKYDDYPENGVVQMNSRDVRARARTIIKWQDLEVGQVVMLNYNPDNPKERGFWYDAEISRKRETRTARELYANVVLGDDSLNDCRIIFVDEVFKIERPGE

[7] = biological target: T3, TTD of UHRF1 (residues 134–285); assay: ITC; in presence of Spacer S651D (1:2)
[8] = biological target: T4, TTD–PHD of UHRF1 (residues 134–366) (human, UniProt Q96T88 134-366); assay: ITC; in presence of Spacer (TTD-PHD/Spacer 1:2)
T4 chain: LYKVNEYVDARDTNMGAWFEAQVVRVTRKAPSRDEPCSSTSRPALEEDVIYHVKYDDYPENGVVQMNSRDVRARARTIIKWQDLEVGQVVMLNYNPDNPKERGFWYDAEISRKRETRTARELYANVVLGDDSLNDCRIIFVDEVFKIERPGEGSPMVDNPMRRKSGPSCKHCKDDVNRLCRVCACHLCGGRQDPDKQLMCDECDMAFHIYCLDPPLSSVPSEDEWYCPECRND

[9] = biological target: T3, TTD of UHRF1 (residues 134–285); assay: ITC; in presence of Spacer K648D (1:2)
[10] = biological target: T4, TTD–PHD of UHRF1 (residues 134–366); assay: ITC; in presence of Spacer (1:2)
[11] = biological target: T3, TTD of UHRF1 (residues 134–285); assay: ITC
UHRF1^Δ627–674 = biological target: T5, UHRF1^Δ627–674 (human, UniProt Q96T88 1-793, Δ627–674); assay: ITC
T5 sequence: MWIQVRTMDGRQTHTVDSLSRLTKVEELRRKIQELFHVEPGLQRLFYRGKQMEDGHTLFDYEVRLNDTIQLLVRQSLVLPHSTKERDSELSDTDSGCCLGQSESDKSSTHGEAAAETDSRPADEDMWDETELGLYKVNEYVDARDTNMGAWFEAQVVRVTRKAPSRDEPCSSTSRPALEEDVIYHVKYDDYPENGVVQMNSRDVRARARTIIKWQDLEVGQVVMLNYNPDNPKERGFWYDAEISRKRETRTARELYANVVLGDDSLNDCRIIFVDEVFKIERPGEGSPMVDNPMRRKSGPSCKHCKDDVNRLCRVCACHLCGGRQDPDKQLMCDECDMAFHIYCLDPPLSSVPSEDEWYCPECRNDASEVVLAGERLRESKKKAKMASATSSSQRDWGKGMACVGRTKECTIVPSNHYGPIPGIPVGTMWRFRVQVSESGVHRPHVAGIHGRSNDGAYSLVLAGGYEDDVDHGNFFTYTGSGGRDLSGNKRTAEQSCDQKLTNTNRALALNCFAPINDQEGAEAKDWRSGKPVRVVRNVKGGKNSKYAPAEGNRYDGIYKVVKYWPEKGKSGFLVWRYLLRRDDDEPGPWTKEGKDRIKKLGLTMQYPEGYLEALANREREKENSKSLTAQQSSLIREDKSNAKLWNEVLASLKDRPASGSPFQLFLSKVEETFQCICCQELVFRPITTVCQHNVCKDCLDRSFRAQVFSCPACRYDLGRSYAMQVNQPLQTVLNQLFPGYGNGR

[12] = biological target: T6, R295D/R296D mutant of full-length UHRF1 (human, UniProt Q96T88 1-793, R295D | R296D); assay: ITC
T6 sequence: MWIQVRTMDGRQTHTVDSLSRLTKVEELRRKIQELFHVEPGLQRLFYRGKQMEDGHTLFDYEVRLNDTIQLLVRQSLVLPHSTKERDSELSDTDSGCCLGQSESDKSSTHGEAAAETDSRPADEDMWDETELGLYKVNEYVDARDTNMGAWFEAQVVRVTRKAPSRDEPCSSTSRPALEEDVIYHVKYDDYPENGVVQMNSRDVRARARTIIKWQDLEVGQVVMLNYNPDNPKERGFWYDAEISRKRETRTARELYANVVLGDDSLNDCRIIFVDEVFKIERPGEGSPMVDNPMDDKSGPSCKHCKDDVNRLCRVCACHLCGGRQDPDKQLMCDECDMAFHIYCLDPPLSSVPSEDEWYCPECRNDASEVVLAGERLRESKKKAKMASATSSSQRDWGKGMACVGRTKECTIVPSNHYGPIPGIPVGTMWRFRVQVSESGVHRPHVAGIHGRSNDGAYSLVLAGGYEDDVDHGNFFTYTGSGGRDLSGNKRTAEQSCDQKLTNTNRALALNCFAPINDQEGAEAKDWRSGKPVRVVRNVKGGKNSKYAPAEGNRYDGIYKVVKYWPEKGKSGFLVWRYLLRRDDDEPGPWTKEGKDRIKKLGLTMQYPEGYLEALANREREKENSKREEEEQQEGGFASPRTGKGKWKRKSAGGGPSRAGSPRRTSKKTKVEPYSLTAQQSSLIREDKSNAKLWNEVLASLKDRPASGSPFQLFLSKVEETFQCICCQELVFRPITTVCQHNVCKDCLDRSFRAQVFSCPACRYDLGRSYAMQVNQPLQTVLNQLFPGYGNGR

[13] = biological target: T3, TTD of UHRF1 (residues 134–285); assay: ITC; in presence of SRA

Question: Which results are given for ARTKQTARKSTGGKAPR [H3 peptide (1–17)]?
Answer: Kd [1]: 4.64 µM; Kd [2]: 2.04 µM; Kd (PHD-SRA of UHRF1): 5.79 µM; Kd [3]: 2.04 µM; Kd [4]: 4.64 µM; Kd [5]: 0.77 µM

Question: How did the Kd [6] turn out when ARTKQTARKSTGGKAPR (trimethyl-lysine at K9) [H3K9me3 peptide (1–17)] was run?
Answer: 2.89 µM

Question: What about the Kd [7] of the same binder?
Answer: 1.28 µM

Question: And the Kd [8]?
Answer: 1.63 µM

Question: What about the Kd [9] of the same binder?
Answer: 6.58 µM

Question: What about the Kd [10] of the same binder?
Answer: 1.63 µM

Question: What about the Kd [11] of the same binder?
Answer: 0.99 µM

Question: And the Kd (UHRF1^Δ627–674)?
Answer: 1.19 µM

Question: And the Kd [12]?
Answer: 36.8 µM

Question: What about the Kd [13] of the same binder?
Answer: 0.88 µM
